T1: human GITR at the cell surface (human, UniProt Q9Y5U5 26-241)
T1 construct: whole, on cells; The cell type is named in the assay field of each row; also called human GITR+ cells; CHO-K1 human GITR+ cells
T1 sequence (looked up): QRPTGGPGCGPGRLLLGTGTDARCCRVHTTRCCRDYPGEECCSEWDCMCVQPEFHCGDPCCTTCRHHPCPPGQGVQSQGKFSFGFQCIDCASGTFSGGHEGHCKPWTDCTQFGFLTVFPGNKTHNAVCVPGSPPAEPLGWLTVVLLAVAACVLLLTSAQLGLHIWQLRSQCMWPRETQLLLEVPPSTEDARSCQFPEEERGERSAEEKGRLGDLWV

T2: human GITR-Fc (human, UniProt Q9Y5U5 26-161)
T2 construct: Recombinant GITR-Fc; also called hGITR-Fc; hGITR; not shown: Fc part
T2 sequence (looked up): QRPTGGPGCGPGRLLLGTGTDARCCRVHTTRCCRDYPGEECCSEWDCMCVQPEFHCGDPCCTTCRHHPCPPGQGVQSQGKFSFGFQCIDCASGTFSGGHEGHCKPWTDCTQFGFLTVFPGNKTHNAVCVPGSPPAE

B1: D-A6 IgG1 (antibody, V domains shown)
VH: EVQLVESGGGLVQPGGSLRLSCAASGFSLSTSGYGVGWVRQAPGKGLEWLAHIWWDDDKYYVDSVKGRFTISRDNAKNSLYLQMNSLRAEDTAVYYCARTRQYFPFAYWGQGTLVTVSS
VL: EIVLTQSPATLSLSPGERATLSCRASQSVGSNLAWYQQKPGQAPRLLIYSASYRYTGIPARFSGSGSGTDFTLTISSLEPEDFAVYYCQQYSTDPLTFGGGTKVEIK
notes: Human IgG1
B2: chimeric anti-GITR IgG1 mVH/mVL (6C8 murine v-domains) (antibody, V domains shown)
VH: QVTLKESGPGILKPSQTLSLTCSFSGFSLSTSGMGVGWIRQPSGKGLEWLAHIWWDDDKYYNPSLKSQLTISKDTSRNQVFLKITSVDTADAATYYCARTRRYFPFAYWGQGTLVTVSS
VL: DIVMTQSQKFMSTSVGDRVSVTCKASQNVGTNVAWYQQKPGQSPKALIYSASYRYSGVPDRFTGSGSGTDFTLTINNVHSEDLAEYFCQQYNTDPLTFGAGTKLEIK
notes: Full-length human IgG1, kappa; also called GITR-mVH/mVL; chimeric IgG

Tests used:
[1] = molecular target: T1, human GITR at the cell surface; test: flow cytometry on CHO-K1 human GITR+ cells; competitor: soluble human GITRL
human GITR-Fc [2] = molecular target: T2, human GITR-Fc; test: HTRF competition: unlabelled IgG1 titrated 0.003-100 µg/ml against terbium-labelled VH1/VL1 IgG on biotinylated human GITR-Fc with SA-XL665, 665/615 ratio
Method: A competition HTRF assay was established to examine epitope competition against VH1/VL1 IgG by grafted and library-derived clones. The purified VH1/VL1 IgG was labelled with terbium using a labelling kit (CisBio) per the manufacturers instructions. The final reaction mix contained biotinylated human GITR-Fc, SA-XL665 (CisBio), terbium-labelled parental […], and competitor IgG of interest, prepared as described above, in a total reaction volume of 20 μl in 1× assay buffer [50 mM sodium phosphate, pH 7.5, 400 mM potassium fluoride, and 0.1% BSA (w/v)]. Reagents were added sequentially on a MiniTrak Liquid Handling Platform (Perkin-Elmer) into 384-well low-volume black plates (Nunc). Reactions proceeded for 1 h at room temperature, and plates were subsequently read on a plate reader with excitation at 340 nm and two emission readings at 615 nm (measuring input donor fluorescence from VH1-VL1-cryptate) and 665 nm (measuring output acceptor fluorescence from SAXL665). Readings were expressed as 665 nm/615 nm ratios.
To examine the competition of the library-derived clones with the unaltered, closest-germline grafted CDRs of VH1/VL1 IgG, an Homogeneous Time Resolved Fluorescence (HTRF) assay was established. This assay incorporated terbium-labelled VH1/VL1 IgG, Biotinylated hGITR-Fc and streptavidin-XL665, in solution-phase binding. […]

human GITR-Fc [3] = molecular target: T2, human GITR-Fc; test: direct titration ELISA, coated human GITR-Fc, IgG1
Method: (§1) To coat Greiner Bio-One High bind ELISA plates, target proteins were diluted to 1 μg/ml in carbonate buffer and added at 100 μl per well, at 4° C., o/n. Coated plates were washed 3× with PBS pH7.4, blocked with 1% BSA in PBS (380 μl/well) for 1 hr at RT, then washed 3× with PBS-Tween 20 (PBST). GITR antibodies (100 μl/well; diluted in PBST) were then added and then incubated 1 hr at RT. Plates were then washed 3× with PBST and goat anti-human kappa chain-HRP added (100 μl/well) at RT, for 1 hr. Plates were then washed 3× with PBST and twice with PBS before the addition of 100 μl TMB per well. Reactions were stopped by adding 100 μl 2M H₂SO₄/well and OD was read on a plate reader at 450 nm. IgG binding analysis via ELISA on negatively charged biomolecular surfaces were performed as previously described (see Mouquet et al., 2010, Nature 467: 591-595).
Retention of GITR-binding function in the purified IgG1 proteins was first examined by titration in direct binding ELISA against human GITR-Fc. […] Importantly, the >100-fold loss of binding function in the VH2 IgG family further illustrated that the HCDR1 could not be fully germ-lined a priori to match the native sequence of the human germline HCDR1 found in the framework used for grafting (IGHV3-7).

[4] = molecular target: T3, cynomolgus monkey GITR-Fc (cynomolgus monkey (Macaca fascicularis)); test: direct titration ELISA on coated cyno GITR-Fc, IgG1 0.001-1 µg/ml, OD 450 nm
T3 construct: also called cyno GITR-Fc; cGITR-Fc
Method: as §1
The 17 purified IgGs described above were then tested for binding to human and cyno GITR-Fc in direct titration ELISA format.

Binder | fold reduction of binding signal in the presence of 10 µg/ml soluble GITRL [1] [fold] | IC50 (read off the curve) (human GITR-Fc [2]) [µg/mL] | EC50 (human GITR-Fc [3]) [ng/mL] | EC50 (read off the curve) [4] [µg/mL]
B1 | > 10 | ~1 |  | 
B2 |  |  | ≥ 4 | ~0.05

— patent US20190375846A1 (ULTRAHUMAN ONE, published 2019)
